Measurements published in patent US20180346600A1 (AJOU UNIVERSITY INDUSTRY ACADEMIC COOPERATION FOUNDATION, published 2018).
Substitutions are numbered along the chain they refer to. Names and notes keep the numbering of the source.

What was measured:
[1] = molecular target: T1, displayed FcCH3A, A241 (E357N/S364W/K370E), on yeast cell surface (human, UniProt P0DOX5 227-449 = IgG part); assay: flow cytometry of diploid yeast: MFI of Flag-tagged secreted FcCH3B held on displayed FcCH3A (anti-Flag mouse mAb and PE anti-mouse antibody), normalised to EW-RVT = 100 %
T1 construct: also called A241 CH3A chain (yeast)
T1 Fc: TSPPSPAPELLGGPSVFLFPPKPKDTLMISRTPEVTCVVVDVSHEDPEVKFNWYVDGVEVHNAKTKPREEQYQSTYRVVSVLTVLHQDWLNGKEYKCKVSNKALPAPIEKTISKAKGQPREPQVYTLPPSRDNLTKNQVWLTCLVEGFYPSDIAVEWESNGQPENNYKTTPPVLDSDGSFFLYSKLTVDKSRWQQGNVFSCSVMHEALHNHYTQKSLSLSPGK
Description: (§1) FACS was sequentially performed four times. […] Table 9 below summarizes the mutation pairs introduced into individual clones selected from the respective LibA2 and LibB2 libraries.

[2] = molecular target: T2, B168w/oW-VT (displayed FcCH3A on yeast cell surface); assay: as above
T2 construct: also called B168w/oW-VT CH3A chain (yeast), D399L
T2 Fc: T1 Fc with N133E, W140S, E146K, D175L
Description: as §1

[3] = molecular target: T3, displayed FcCH3A, B212 (K392I/D399L), on yeast cell surface (human, UniProt P0DOX5 227-449 = IgG part); assay: as above
T3 construct: also called B212 CH3A chain (yeast)
T3 Fc: T1 Fc with N133E, W140S, E146K, K168I, D175L
Description: as §1

[4] = molecular target: T4, displayed FcCH3A, KiH (Genentech) (T366S/L368A/Y407V), on yeast cell surface (human, UniProt P0DOX5 227-449 = IgG part); assay: flow cytometry histogram (PE, FL2-H) of diploid yeast: Flag-tagged secreted FcCH3B held on displayed FcCH3A, anti-Flag mouse mAb and PE anti-mouse antibody
T4 construct: also called KiH CH3A chain (yeast)
T4 Fc: T1 Fc with N133E, W140S, T142S, L144A, E146K, Y183V
Protocol: (§2) Specifically, the diploid in which the expression of the heterodimeric heavy chain constant region was induced was reacted with an antibody recognizing flag-tag included in the secreted FcCH3B (anti-Flag mouse mAb, F3165) (Sigma-Aldrich) and an antibody conjugated with PE (phycoerythrin conjugated anti-mouse mAb, sc-3738) (Santa Cruz biotechnology), and a signal of PE was analyzed by flow cytometry.

[5] = molecular target: T5, displayed FcCH3A, B215 (K392R/K409R/D399L), on yeast cell surface (human, UniProt P0DOX5 227-449 = IgG part); assay: flow cytometry of diploid yeast: MFI of Flag-tagged secreted FcCH3B held on displayed FcCH3A (anti-Flag mouse mAb and PE anti-mouse antibody), normalised to EW-RVT = 100 %
T5 construct: also called B215 CH3A chain (yeast)
T5 Fc: T1 Fc with N133E, W140S, E146K, K168R, D175L, K185R
Description: as §1

[6] = molecular target: T6, displayed FcCH3A, B235 (K392C/D399L), on yeast cell surface (human, UniProt P0DOX5 227-449 = IgG part, chain 1 pos 168 (K392C): said to form an inter-chain disulfide with D399C of the CH3B partner); assay: as above
T6 construct: also called B235 CH3A chain (yeast)
T6 Fc: T1 Fc with N133E, W140S, E146K, K168C, D175L
Description: as §1

[7] = molecular target: T7, displayed FcCH3A, B239 (K392L/D399L), on yeast cell surface (human, UniProt P0DOX5 227-449 = IgG part); assay: as above
T7 construct: also called B239 CH3A chain (yeast)
T7 Fc: T1 Fc with N133E, W140S, E146K, K168L, D175L
Description: as §1

[8] = molecular target: T8, displayed FcCH3A, B240 (K392S/K409R/D399L), on yeast cell surface (human, UniProt P0DOX5 227-449 = IgG part); assay: as above
T8 construct: also called B240 CH3A chain (yeast)
T8 Fc: T1 Fc with N133E, W140S, E146K, K168S, D175L, K185R
Description: as §1

[9] = molecular target: T9, displayed FcCH3A, B256 (K392N/D399L), on yeast cell surface (human, UniProt P0DOX5 227-449 = IgG part); assay: as above
T9 construct: also called B256 CH3A chain (yeast)
T9 Fc: T1 Fc with N133E, W140S, E146K, K168N, D175L
Description: as §1

[10] = molecular target: T10, Hole-Hole (displayed FcCH3A on yeast cell surface); assay: flow cytometry histogram (PE, FL2-H) of diploid yeast: Flag-tagged secreted FcCH3B held on displayed FcCH3A, anti-Flag mouse mAb and PE anti-mouse antibody
T10 construct: also called Hole-Hole (Genentech) CH3A chain (yeast), T366S/L368A/Y407V
T10 Fc: T1 Fc with N133E, W140S, T142S, L144A, E146K, Y183V
Protocol: as §2

B1: secreted FcCH3B, A241 (E357N), from yeast (other)
chain: T1 Fc with W140S, E146K
notes: also called A241 CH3B chain (yeast); not shown: flag-tag
Question: Does B1 bind [1]?
Answer: Result: binds

B2: B168w/oW-VT (secreted FcCH3B from yeast) (other)
secreted Fc chain (hinge-CH2-CH3B): T1 Fc with N133E, W140S, E146K, K168G, K185M
notes: also called B168w/oW-VT CH3B chain (yeast), K392G/K409M
Question: Does B2 bind [2]?
Answer: Result: binds

B3: secreted FcCH3B, B212 (D399G/K392G/K409M), from yeast (other)
chain: T1 Fc with N133E, W140S, E146K, K168G, D175G, K185M
notes: also called B212 CH3B chain (yeast); not shown: flag-tag
Question: Does B3 bind [3]?
Answer: Result: binds

B4: secreted FcCH3B, KiH (Genentech) (T366W), from yeast (other)
chain: T1 Fc with N133E, W140S, T142W, E146K
notes: also called KiH CH3B chain (yeast); not shown: flag-tag
Question: Does B4 bind [4]?
Answer: Result: binds

B5: secreted FcCH3B, B215 (D399W/K392G/K409M), from yeast (other)
chain: T1 Fc with N133E, W140S, E146K, K168G, D175W, K185M
notes: also called B215 CH3B chain (yeast); not shown: flag-tag
Question: Does B5 bind [5]?
Answer: Result: binds

B6: secreted FcCH3B, B235 (D399C/K392G/K409M), from yeast (other)
chain: T1 Fc with N133E, W140S, E146K, K168G, D175C, K185M
notes: also called B235 CH3B chain (yeast); not shown: flag-tag
Question: Does B6 bind [6]?
Answer: Result: binds

B7: secreted FcCH3B, B239 (D399S/K392G/K409M), from yeast (other)
chain: T1 Fc with N133E, W140S, E146K, K168G, D175S, K185M
notes: also called B239 CH3B chain (yeast); not shown: flag-tag
Question: Does B7 bind [7]?
Answer: Result: binds

B8: secreted FcCH3B, B240 (D399G/K392G/K409M), from yeast (other)
chain: T1 Fc with N133E, W140S, E146K, K168G, D175G, K185M
notes: also called B240 CH3B chain (yeast); not shown: flag-tag
Question: Does B8 bind [8]?
Answer: Result: binds

B9: secreted FcCH3B, B256 (D399V/K392G/K409M), from yeast (other)
chain: T1 Fc with N133E, W140S, E146K, K168G, D175V, K185M
notes: also called B256 CH3B chain (yeast); not shown: flag-tag
Question: Does B9 bind [9]?
Answer: Result: binds

B10: Hole-Hole (secreted FcCH3B from yeast) (other)
secreted Fc chain (hinge-CH2-CH3B): T1 Fc with N133E, W140S, T142S, L144A, E146K, Y183V
notes: also called Hole-Hole (Genentech) CH3B chain (yeast), T366S/L368A/Y407V
Question: Does B10 bind [10]?
Answer: Result: no binding
